The values below come from patent US7244591.

This data set deals with T1, recombinant human parathyroid hormone (hPTH), intact molecule (1-84), P01270.
T1 chain: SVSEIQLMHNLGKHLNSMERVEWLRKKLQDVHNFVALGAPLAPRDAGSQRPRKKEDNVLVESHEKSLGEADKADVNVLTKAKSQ

B1: Yapsin 1 (protein)
chain: ADGYEEIIITNQQSFYSVDLEVGTPPQNVTVLVDTGSSDLWIMGSDNPYCSSNSMGSSRRRVIDKRDDSSSGGSLINDINPFGWLTGTGSAIGPTATGLGGGSGTATQSVPASEATMDCQQYGTFSTSGSSTFRSNNTYFSISYGDGTFASGTFGTDVLDLSDLNVTGLSFAVANETNSTMGVLGIGLPELEVTYSGSTASHSGKAYKYDNFPIVLKNSGAIKSNTYSLYLNDSDAMHGTILFGAVDHSKYTGTLYTIPIVNTLSASGFSSPIQFDVTINGIGISDSGSSNKTLTTTKIPALLDSGTTLTYLPQTVVSMIATELGAQYSSRIGYYVLDCPSDDSMEIVFDFGGFHINAPLSSFILSTGTTCLLGIIPTSDDTGTILGDSFLTNAYVVYDLENLEISMAQARYNTTSENIEIITSSVPSAVKAPGYTNTWSTSASIVTGGNIFTVNSSQTASFSGNLTTSTASATSTSSKRN
As to B1, the “cleavage of secreted hPTH into the truncated d1 form (27-84), SDS-PAGE of culture supernatants of wild-type and yps1-disrupted strains” value was “the main protease causative of the cleavage of hPTH in the early culture stage is Yapsin 1”.
